Test results reported in publication PMC4486171, “Ohr Protects Corynebacterium glutamicum against Organic Hydroperoxide Induced Oxidative Stress” (PLoS ONE, 2015).

Substrate: CC(C)(OO)c1ccccc1
Assay: purified protein
Format: biochemical, Corynebacterium glutamicum
Conditions: 40 μM Lpd, 5 μM SucB, 0.2 mM NADPH, 0.1 μM Ohr, 50 mM sodium phosphate pH 7.4, 50 mM NaCl, 1 mM DTPA, 37°C

B1: Ohr (Corynebacterium glutamicum ATCC 13032) (protein)
chain: MAIESIAYTSEALSTGSGRLGHVRSTDGALEFEMTPPKALGGSGEGTNPEQLFAVGYAACFHSAMHSVARSRKITLEDTAVGARVSIGPNGAGGFEIAVELEVSIPQLPQAEAQELADAAHQVCPYSNATRGNISVTVSVIDEEA
notes: N-terminal His6 tag (pET-28a), about 17 kDa on gel, E. coli BL21(DE3)
Km: 17.48 ± 0.78 µM | kcat: 5.48 s⁻¹ | kcat/Km: 314300 ± 1420 M⁻¹ s⁻¹
